The values that follow come from article PMC4646009.

Like-named read-outs stand apart in the source and are kept apart here.

Test [1] has as its target Streptococcus thermophilus QueG (epoxyqueuosine reductase) (Streptococcus thermophilus). In words: native MS; nano-ESI, Waters Synapt G2, protein at 3-30 uM in anaerobic 100 mM ammonium acetate pH 6.8; monomer to dimer.
For test [2] the target is unchanged. Described as above. The source holds these as a separate data set.

Usually stoichiometry N stands for a count of units in the complex or per binding partner. For “Streptococcus thermophilus QueG (epoxyqueuosine reductase) (enzyme)”, the proportion of dimer in test [1] is less than 5%; in test [2] it was 5%. In test [2], this substance registered a stoichiometry N of 2.
